# Numbering of substitutions follows the chain as printed.
# T1: Human CD19-his protein (human, UniProt P15391 20-291)
# T1 construct: bought protein; also called recombinant human CD19-His; CD19 full-length protein; not shown: His tag
# T1 sequence (looked up): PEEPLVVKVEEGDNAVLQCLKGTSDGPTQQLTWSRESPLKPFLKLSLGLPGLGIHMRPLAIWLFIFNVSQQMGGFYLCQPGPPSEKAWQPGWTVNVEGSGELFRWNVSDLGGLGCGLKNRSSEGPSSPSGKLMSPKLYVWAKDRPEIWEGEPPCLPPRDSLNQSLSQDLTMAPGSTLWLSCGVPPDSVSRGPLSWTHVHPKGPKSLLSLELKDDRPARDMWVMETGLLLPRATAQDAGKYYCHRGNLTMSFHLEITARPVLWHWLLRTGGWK
# T2: human CD19 on Raji cells (human, UniProt P15391 20-556)
# T2 construct: whole, on cells
# T2 sequence (looked up): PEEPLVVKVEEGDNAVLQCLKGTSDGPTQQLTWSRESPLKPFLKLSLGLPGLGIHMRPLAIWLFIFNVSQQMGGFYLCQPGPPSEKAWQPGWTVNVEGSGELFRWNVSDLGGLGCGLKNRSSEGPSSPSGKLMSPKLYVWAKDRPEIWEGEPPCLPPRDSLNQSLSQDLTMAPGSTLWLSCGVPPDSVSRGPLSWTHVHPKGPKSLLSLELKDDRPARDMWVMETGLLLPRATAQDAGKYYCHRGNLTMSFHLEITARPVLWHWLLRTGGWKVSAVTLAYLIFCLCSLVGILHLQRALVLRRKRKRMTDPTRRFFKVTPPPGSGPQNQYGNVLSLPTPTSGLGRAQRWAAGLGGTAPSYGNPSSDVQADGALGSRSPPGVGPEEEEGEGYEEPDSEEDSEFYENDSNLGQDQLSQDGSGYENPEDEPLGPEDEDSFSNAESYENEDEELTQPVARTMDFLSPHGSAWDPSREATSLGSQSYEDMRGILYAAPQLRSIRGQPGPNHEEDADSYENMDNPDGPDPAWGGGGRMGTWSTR
# T3: human CD19 on CHO-K1-human CD19 cells (human, UniProt P15391 20-556)
# T3 construct: whole, on cells; also called CHO-K1-human CD19-2C8
# T3 sequence (looked up): T2 sequence (looked up)
# T4: human CD19 exon1-3-His tag protein (human, UniProt P15391 20-186, limits assumed)
# T4 construct: membrane-distal part of the extracellular region, made in HEK293E cells; not shown: His tag
# T4 sequence (looked up): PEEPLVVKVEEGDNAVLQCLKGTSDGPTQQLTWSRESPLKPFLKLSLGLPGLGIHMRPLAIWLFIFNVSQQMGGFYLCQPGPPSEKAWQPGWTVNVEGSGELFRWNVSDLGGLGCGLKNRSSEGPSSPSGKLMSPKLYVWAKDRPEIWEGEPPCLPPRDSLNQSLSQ
# B1: F3.121.4-L2H3 (antibody, mouse IgG1, kappa)
# heavy: EVQLVQSGAEVKKPGASVKVSCKASGYTFTNYWMHWVRQRPGQGLEWMGEIDPSDNYANYNQEFQGRVTITVDKSASTAYMELSSLRSEDTAVYYCARHDGYFGALDYWGQGTTVTVSSAKTTPPSVYPLAPGSAAQTNSMVTLGCLVKGYFPEPVTVTWNSGSLSSGVHTFPAVLQSDLYTLSSSVTVPSSTWPSETVTCNVAHPASSTKVDKKIVPRDCGCKPCICTVPEVSSVFIFPPKPKDVLTITLTPKVTCVVVDISKDDPEVQFSWFVDDVEVHTAQTQPREEQFNSTFRSVSELPIMHQDWLNGKEFKCRVNSAAFPAPIEKTISKTKGRPKAPQVYTIPPPKEQMAKDKVSLTCMITDFFPEDITVEWQWNGQPAENYKNTQPIMDTDGSYFVYSKLNVQKSNWEAGNTFTCSVLHEGLHNHHTEKSLSHSPGK
# light: EIVLTQSPDFQSVTPKEKVTITCSASSSISSNYLHWYQQKPDQSPKLLIKRTSNLASGVPSRFSGSGSGTDFTLTINSLEAEDAATYYCQQASSIPRMFTFGQGTKLEIKRADAAPTVSIFPPSSEQLTSGGASVVCFLNNFYPKDINVKWKIDGSERQNGVLNSWTDQDSKDSTYSMSSTLTLTKDEYERHNSYTCEATHKTSTSPIVKSFNRNEC
# notes: humanized antibody of F3.121.4, VL2+VH3, murine IgG1 constant regions
# B2: F3.121.4-L2H4 (antibody, mouse IgG1, kappa)
# heavy: B1 heavy with V5Q
# light: B1 light
# notes: humanized antibody of F3.121.4, VL2+VH4, murine IgG1 constant regions
# B3: F3.121.4-L3H2 (antibody, mouse IgG1, kappa, V domains shown)
# VH: EVQLVQSGAEVKKPGASVKVSCKASGYTFTNYWMHWVRQAPGQGLEWMGEIDPSDNYANYNQEFQGRVTITVDKSASTAYMELSSLRSEDTAVYYCARHDGYFGALDYWGQGTTVTVSS
# VL: EIVLTQSPDFQSVTPKEKVTITCSASSSISSNYLHWYQQKPDQSPKFLIYRTSNLASGVPSRFSGSGSGTDFTLTINSLEAEDAATYYCQQASSIPRMFTFGQGTKLEIKR
# notes: humanized antibody of F3.121.4, VL3+VH2, murine IgG1 constant regions
# B4: F3.121.4-L3H1 (antibody, mouse IgG1, kappa, V domains shown)
# VH: B3 VH with G44R
# VL: B3 VL
# notes: humanized antibody of F3.121.4, VL3+VH1, murine IgG1 constant regions
# Target: T1, Human CD19-his protein
# Assay: ELISA on coated human CD19-His
row,Binder,EC50 (read off the curve)
1,B1,~50 pM
2,B2,~50 pM
3,B3,~50 pM
4,B4,~50 pM

# Target: T2, human CD19 on Raji cells
# Assay: FACS on Raji cells
# Protocol: (§1) After the digestion was terminated, the cells were washed 2 times with a PBS buffer; and for suspension cell Raji, the supernatant of the medium was discarded by directly centrifugation, and the cell pellet was washed 2 times with PBS. After counting the cells in the previous step, the cell pellet was resuspended with [PBS+2% (w/w) BSA] blocking solution to 2×10⁶ cells/ml, and added to a 96-well FACS reaction plate at 50 μl/well, and then the sample to be tested was added at 50 μl/well, and incubated on ice for 2 h. The obtained mixture was centrifuged and washed 3 times with a PBS buffer. […] The obtained mixture was centrifuged and washed 5 times with a PBS buffer, and FACS (FACS Canto™, purchased from BD Company) was used for detection and result analysis. Data analysis was performed by software (FlowJo) to obtain the mean fluorescence intensity (MFI) of the cells. And then software (GraphPad Prism8) was used for analysis, data fitting, and EC50 value calculation. […] The same method was used to detect the binding of the chimeric antibodies to endogenous CD19-negative cells, MoLT4 cells (purchased from ATCC, CRL-1582), and CHO-K1 cells.
Binder,EC50,Maximum mean fluorescence intensity
B1,450 pM,29600 MFI
B2,370 pM,29200 MFI
B3,420 pM,32200 MFI
B4,380 pM,32000 MFI

# Target: T3, human CD19 on CHO-K1-human CD19 cells
# Assay: FACS on CHO-K1-human CD19 cells
# Protocol: as §1
Binder,EC50,Maximum mean fluorescence intensity
B1,1170 pM,52200 MFI
B2,1130 pM,52000 MFI
B3,1080 pM,52100 MFI
B4,1130 pM,53500 MFI

# Target: T1, Human CD19-his protein
# Assay: SPR Biacore, method of example 7.1, human CD19-His
# Protocol: A sample buffer and a running buffer were HBS-EP+ (10 mM HEPES, 150 mM NaCl, 3 mM EDTA and 0.05% surfactant P20) (GE Healthcare; BR-1006-69). The flow-through cell was set to 25° C. The sample block was set to 16° C. Both were pretreated with the running buffer. In each cycle, an antibody to be detected was first captured with a Protein A chip, and then a single concentration of CD19 antigen protein was injected. The binding and dissociation processes of the antibody and the antigen protein were recorded, and finally Glycine pH 1.5 (GE Healthcare; BR-1003-54) was used to complete chip regeneration. The binding was measured by injecting different concentrations of recombinant human CD19-His proteins in a solution for 240 s with a flow rate of 30 μl/min. The concentration started from 200 nM (see the detailed results for the actual concentration in the test) and was diluted at 1:1, making a total of 5 concentrations. The dissociation phase was monitored for up to 600 s and was triggered by switching from sample solution to running buffer. The surface was regenerated by washing with a 10 mM glycine solution (pH 1.5) for 30 s at a flow rate of 30 μl/min. Bulk refractive index difference was corrected by subtracting the response obtained from the goat anti-human Fc surface. Blank injection was also subtracted (=double reference). For calculation of apparent KD and other kinetic parameters, Langmuir 1:1 model was used.
# SPR (biacore) detection and data analysis were performed according to the method in example 7.1.
Binder,Kd,koff,kon
B1,1380 pM,0.000188 s⁻¹,137000 M⁻¹ s⁻¹
B2,1530 pM,0.000186 s⁻¹,122000 M⁻¹ s⁻¹
B3,0.0498 pM,5.65e-09 s⁻¹,113000 M⁻¹ s⁻¹
B4,244 pM,3.18e-05 s⁻¹,130000 M⁻¹ s⁻¹

# Target: T1, Human CD19-his protein
# Assay: ELISA, coated human CD19-His
# Protocol: Human CD19-his protein (purchased from ACROBiosystems, catalog number: CD9-H52H2) was diluted with PBS to a final concentration of 4 μg/mL, and then added to a 96-well ELISA plate at 100 μl/well. The plate was sealed with a plastic film and incubated overnight at 4° C., the plate was washed 2 times with PBS the next day, and then a blocking solution [PBS+2% (w/w) BSA] was added for blocking at room temperature for 2 h. The blocking solution was poured off, and 100 nM gradiently diluted CD19 chimeric antibody or control antibody was added at 50 μl/well. After incubation at 37° C. for 2 h, the plate was washed 3 times with PBS. […] TMB substrate was added at 50 μl/well, and incubated at room temperature for 10 min, and then a stop solution (1.0 N HCl) was added at 50 μl/well. The OD450 nm values were read by an ELISA microplate reader (Multimode Plate Reader, EnSight, purchased from Perkin Elmer).
Binder,OD450 at 0.0001 nM,OD450 at 0.001 nM,OD450 at 0.01 nM,OD450 at 0.10 nM,OD450 at 1.00 nM,OD450 at 10 nM,OD450 at 100 nM
B1,0.1 OD450,0.14 OD450,0.39 OD450,1.55 OD450,2.47 OD450,2.33 OD450,2.32 OD450
B2,0.1 OD450,0.14 OD450,0.39 OD450,1.53 OD450,2.36 OD450,2.27 OD450,2.34 OD450
B3,0.1 OD450,0.14 OD450,0.42 OD450,1.6 OD450,2.36 OD450,2.3 OD450,2.28 OD450
B4,0.1 OD450,0.14 OD450,0.39 OD450,1.62 OD450,2.42 OD450,2.37 OD450,2.17 OD450

# Target: T4, human CD19 exon1-3-His tag protein
# Assay: ELISA, coated human CD19 exon 1-3-His
Binder,OD450 at 0.0001 nM,OD450 at 0.001 nM,OD450 at 0.01 nM,OD450 at 0.10 nM,OD450 at 1.00 nM,OD450 at 10 nM,OD450 at 100 nM
B1,0.05 OD450,0.05 OD450,0.05 OD450,0.05 OD450,0.05 OD450,0.05 OD450,0.08 OD450
B2,0.05 OD450,0.05 OD450,0.05 OD450,0.05 OD450,0.04 OD450,0.05 OD450,0.08 OD450
B3,0.05 OD450,0.05 OD450,0.05 OD450,0.05 OD450,0.05 OD450,0.05 OD450,0.12 OD450
B4,0.05 OD450,0.05 OD450,0.05 OD450,0.05 OD450,0.05 OD450,0.05 OD450,0.09 OD450

# Reference: patent publication US20250042994A1 (HAINAN SIMCERE ZAIMING PHARMACEUTICAL, published 2025)
